“And” between values parts separate entries of the source, which are not always exact repeats. Identical values can stand only once.
Experiments:
[1] = system: human leukocyte elastase (HLE); assay: Anti-elastase activity: inhibition of human leukocyte elastase cleavage of MeO-Suc-Ala-Ala-Pro-Val-p-nitroanilide (A410); format: biochemical
Protocol: For the assay, extracts were diluted in 50 mM Tris pH8, 50 mM NaCl. […] Assays were initiated by the addition of 0.1 5 μg HLE and were incubated for 15 min at 28° C., terminated by the addition of 100 μl of 8N acetic acid and the absorbance at 410 nm determined (Beatty et al., supra). Protein concentrations were determined as described in Bradford, Anal. Biochem. (1976) 72:248-253. From the amount of human leukocyte elastase activity observed, given the protein concentration of the yeast extracts and the amount of the enzyme added, the percentage of the yeast soluble protein which is α1 -antitrypsin can be calculated. It is assumed that there is 100 percent human leukocyte elastase activity, a 1:1 complex between human leukocyte elastase and α1 -antitrypsin whose molecular weights are 29 kD and 42 kD, respectively.

[2] = system: human leukocyte elastase (HLE); assay: Oxidation resistance: N-chlorosuccinimide (NCS) treatment, then anti-HLE activity assay; format: biochemical
Protocol: To determine the anti-elastase activities of the mutant (Val) or wild-type (Met) α1 -antitrypsin, appropriate yeast extracts were incubated with human leukocyte elastase (HLE) and a synthetic peptide substrate the cleavage of which can be assayed at 410 nm (Beatty et al., supra). For the assay, extracts were diluted in 50 mM Tris pH8, 50 mM NaCl. […] Assays were initiated by the addition of 0.1 5 μg HLE and were incubated for 15 min at 28° C., terminated by the addition of 100 μl of 8N acetic acid and the absorbance at 410 nm determined (Beatty et al., supra).
For this purpose, aliquots of the extracts were diluted in 50 mM Tris pH8, 50 mM NaCl, incubated at room temperature for 5 min in 100 μl of 50 mM Tris pH8, with the indicated amount of NCS, and assayed for anti-HLE activity.

α1 AT: Control human α1-antitrypsin added in μg amounts to the elastase assay
Elastase Activity (%) ([1]; Table 1, 0.2 μg control human α1 AT, no NCS): 67% | Elastase Activity (%) ([1]; Table 1, 1.0 μg control human α1 AT plus 3.8 μl Cl/l yeast extract, no NCS): 12% | Elastase Activity (%) ([1]; Table 1, 1.0 μg control human α1 AT, no NCS): 5% and 0% | Elastase Activity (%) ([1]; Table 2, 0.5 μg control human α1 AT, NCS -): 44% | Elastase Activity (%) ([1]; Table 2, 1.0 μg control human α1 AT, NCS -): 10% | Elastase Activity (%) ([2]; Table 1, 1.0 μg control human α1 AT plus 3.8 μl Cl/l yeast extract, NCS (10 mM) 10 μl): 84% | Elastase Activity (%) ([2]; Table 1, 1.0 μg control human α1 AT, NCS (10 mM) 10 μl): 91% | Elastase Activity (%) ([2]; Table 2, 0.5 μg control human α1 AT, NCS (10 mM) +): 96%
